Consider 167 variants from the RNAGym collection of RNA variant scans (doi:10.7554/elife.90254).

To fix the notation:
B1: LINE1-mini (parent)
chain: GGCAGAGCUCAACACAGCGUGGCAAAGUGGCUGUGGCUAGACUGCC

In the series the parent is B1. Nature of the series: self-cleavage, relative activity (ratio to wild type); higher = more cleavage; in vitro, sequencing; the parent is a self-cleaving ribozyme.
For the variant G19C U34A, the self-cleavage is 0.28. As for G19C U34C, the self-cleavage came to 1.22. Turning to G19U G40C, the self-cleavage was determined as 0.05.

For G19U G40A, the self-cleavage came to 0.08. To G19U G40U belongs 0.1. Consider G19C C42U, for which the self-cleavage was 0.25.

Turning to G19C C42A, the self-cleavage was found to be 0.14.

Take G19C C42G: the self-cleavage came to 0.01. Consider U20C G29C, for which the self-cleavage came out at 0.31.

As to U20C G29A, the self-cleavage is 0.55. With U20C G29U the figure was 0.4; with U20C U43A, 0.05; with U20A A25C, 0.61. To U20A A25G belongs 0.26; to U20A A25U, 0.77.

On to G19U U34C, for which the self-cleavage is 0.17. Take G19U U34A: the self-cleavage was determined as 0.13. With G19U U34G the figure was 0.16; with G19C U32A, 0.16; with G19C U32G, 0.43. As to G19C U32C, the self-cleavage was found to be 0.14. For U20C C46U, the self-cleavage was determined as 0.42. For U20C C46G, the self-cleavage is 0.47.

In the case of U20C C46A, the self-cleavage was 0.7.

For G19U C37G, the self-cleavage turned out to be 0.02.

G19U C37A: the self-cleavage amounted to 0.05. To G19U C37U belongs 0.04. As for G19U U43A, the self-cleavage was found to be 0.06. For the variant G19U U43C, the self-cleavage came out at 0.07.

Turning to G19U U43G, the self-cleavage amounted to 0.02. U20C C23U: the self-cleavage is 0.61. With U20C C23G the figure was 0.44; with U20C C23A, 0.49.

On to U20C G30A, for which the self-cleavage came to 0.45. For the variant U20C G30C, the self-cleavage is 0.98. As for U20C G30U, the self-cleavage turned out to be 0.41. Consider U20A U38G, for which the self-cleavage turned out to be 0.02. To U20A U38A belongs 0.43; to U20A U38C, 0.41.

Turning to U20C G22U, the self-cleavage stood at 0.4.

With U20C G22C, the self-cleavage turned out to be 0.19. With U20C G22A the figure was 0.77; with G19U G27C, 0.75; with G19U G27U, 0.58. To G19U G27A belongs 0.54; to U20A C46G, 0.79. U20A C46A: the self-cleavage came to 0.76. To U20A C46U belongs 0.65; to U20A C31U, 0.17. With U20A C31G the figure was 0.08; with U20A C31A, 0.09; with G19U, 0.77. With G19C the figure was 0.5; with G19C G44U, 0.15; with G19C G44A, 0.15. Consider G19C G44C, for which the self-cleavage was found to be 0.12. To G19C C23A belongs 0.37. To G19C C23U belongs 0.83; to G19C C23G, 0.42; to G19C A24G, 0.53. For the variant G19C A24U, the self-cleavage came out at 0.6. To G19C A24C belongs 0.34; to G19C G29C, 0.54; to G19C G29U, 0.54. To G19C G29A belongs 0.92.

In the case of G19C A39C, the self-cleavage was determined as 0.05. To G19C A39U belongs 0.28; to G19C A39G, 0.02; to G19C C31U, 0.58.

G19C C31A: the self-cleavage turned out to be 0.63. With G19C C31G the figure was 1.26. Take G19A U32A: the self-cleavage is 0.15. To G19A U32G belongs 0.1; to G19A U32C, 0.12; to U20A U34A, 0.08.

For U20A U34C, the self-cleavage was 0.27.

In the case of U20A U34G, the self-cleavage is 0.25. G19C G22C: the self-cleavage was 0.32. In the case of G19C G22U, the self-cleavage worked out at 0.51. With G19C G22A, the self-cleavage was 0.39. To U20A belongs 0.68; to U20C, 0.66; to U20C U38C, 0.22. With U20C U38A the figure was 0.19; with U20C U38G, 0.01; with G19U G22A, 0.78.

As to G19U G22C, the self-cleavage amounted to 0.5. For the variant G19U G22U, the self-cleavage turned out to be 0.63. Take G19U A25U: the self-cleavage came out at 0.67. G19U A25C: the self-cleavage was found to be 0.61. Regarding G19U A25G, the self-cleavage was 0.49. Take G19U G30A: the self-cleavage turned out to be 0.96. With G19U G30C the figure was 0.59; with G19U G30U, 1.11. As to G19C G36C, the self-cleavage turned out to be 0.05. Consider G19C G36A, for which the self-cleavage is 0.09.

As to G19C G36U, the self-cleavage was determined as 0.06. With U20C C42G the figure was 0.04. With U20C C42U the figure was 0.31; with U20C C42A, 0.04; with G19U G29C, 0.64. To G19U G29U belongs 0.8; to G19U G29A, 0.93. On to G19U A24U, for which the self-cleavage came out at 0.81.

Regarding G19U A24C, the self-cleavage stood at 0.73. With G19U A24G the figure was 0.45; with G19C A41U, 0.19; with G19C A41G, 0.03.

Take G19C A41C: the self-cleavage is 0.05.

Turning to G19U G35U, the self-cleavage was determined as 0.16.

In the case of G19U G35A, the self-cleavage amounted to 0.12. With G19U G35C the figure was 0.09. With U20C A41G the figure was 1.

With U20C A41C, the self-cleavage turned out to be 0.08.

Regarding U20C A41U, the self-cleavage was 0.46. Regarding G19U U32C, the self-cleavage is 0.4. To G19U U32A belongs 0.09; to G19U U32G, 0.1; to G19U C23A, 0.64.

G19U C23G: the self-cleavage was 0.7. With G19U C23U the figure was 1.03. With G19U C42A the figure was 0.14.

Take G19U C42U: the self-cleavage worked out at 0.3. To G19U C42G belongs 0.07.

As to G19C U28A, the self-cleavage turned out to be 1.2.

For the variant G19C U28C, the self-cleavage was 0.6.

With G19C U28G, the self-cleavage was 0.37.

As to G19C G40U, the self-cleavage amounted to 0.08. Turning to G19C G40C, the self-cleavage is 0.06. To G19C G40A belongs 0.06. On to U20A C23A, for which the self-cleavage is 1.15. Turning to U20A C23U, the self-cleavage was 0.8. For the variant U20A C23G, the self-cleavage came to 0.69.

As for U20A A41U, the self-cleavage stood at 0.35. Consider U20A A41C, for which the self-cleavage stood at 0.05. With U20A A41G the figure was 0.36; with U20C G27A, 0.78. With U20C G27C the figure was 0.28; with U20C G27U, 0.31.

For the variant G19U A41C, the self-cleavage is 0.03. To G19U A41U belongs 0.41. With G19U A41G the figure was 0.2. As for G19U U28C, the self-cleavage worked out at 0.67.

For G19U U28A, the self-cleavage was found to be 0.63. With G19U U28G, the self-cleavage is 0.73. On to U20A A26U, for which the self-cleavage was 0.91. To U20A A26C belongs 0.76; to U20A A26G, 0.91; to U20A C37A, 0.05.

In the case of U20A C37U, the self-cleavage is 0.05. On to U20A C37G, for which the self-cleavage came out at 0.03.

As for G19A U20G, the self-cleavage stood at 0.59. As to U20C A26C, the self-cleavage is 0.36. To U20C A26U belongs 0.68; to U20C A26G, 0.36.

Consider G19A U43G, for which the self-cleavage amounted to 0.06. To G19A U43A belongs 0.15; to G19A U43C, 0.18; to U20C A39C, 0.2. With U20C A39U, the self-cleavage is 0.37. To U20C A39G belongs 0.06; to U20C C37A, 0.04; to U20C C37U, 0.06. With U20C C37G the figure was 0.23.

For the variant U20A G35C, the self-cleavage came out at 0.05. For the variant U20A G35U, the self-cleavage turned out to be 0.08. Consider U20A G35A, for which the self-cleavage was 0.1.
